From patent publication EP4442707

What was measured:
bovine serum albumin = bovine serum albumin (Bos taurus, UniProt P02769); test: SPR pH 7.4
rat serum albumin = target: T1, rat serum albumin (Rattus norvegicus, UniProt P02770); test: SPR pH 7.4
T1 chain: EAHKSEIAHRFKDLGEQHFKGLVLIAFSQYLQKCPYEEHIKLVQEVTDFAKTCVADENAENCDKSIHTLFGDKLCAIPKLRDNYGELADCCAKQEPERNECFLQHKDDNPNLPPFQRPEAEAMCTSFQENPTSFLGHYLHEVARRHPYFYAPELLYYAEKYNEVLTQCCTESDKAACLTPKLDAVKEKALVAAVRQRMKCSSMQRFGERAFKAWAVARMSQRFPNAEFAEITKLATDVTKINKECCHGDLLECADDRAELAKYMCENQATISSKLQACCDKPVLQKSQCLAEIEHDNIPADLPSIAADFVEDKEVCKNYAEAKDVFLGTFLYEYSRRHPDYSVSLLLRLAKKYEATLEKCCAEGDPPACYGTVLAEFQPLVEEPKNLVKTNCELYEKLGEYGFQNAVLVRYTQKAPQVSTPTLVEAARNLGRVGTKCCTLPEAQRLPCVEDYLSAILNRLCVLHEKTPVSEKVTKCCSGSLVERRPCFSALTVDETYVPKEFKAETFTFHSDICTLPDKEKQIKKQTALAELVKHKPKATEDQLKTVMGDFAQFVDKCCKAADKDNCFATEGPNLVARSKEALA

cynomolgus serum albumin = target: T2, cynomolgus serum albumin (Macaca fascicularis, UniProt A2V9Z4); test: SPR pH 7.4
T2 chain: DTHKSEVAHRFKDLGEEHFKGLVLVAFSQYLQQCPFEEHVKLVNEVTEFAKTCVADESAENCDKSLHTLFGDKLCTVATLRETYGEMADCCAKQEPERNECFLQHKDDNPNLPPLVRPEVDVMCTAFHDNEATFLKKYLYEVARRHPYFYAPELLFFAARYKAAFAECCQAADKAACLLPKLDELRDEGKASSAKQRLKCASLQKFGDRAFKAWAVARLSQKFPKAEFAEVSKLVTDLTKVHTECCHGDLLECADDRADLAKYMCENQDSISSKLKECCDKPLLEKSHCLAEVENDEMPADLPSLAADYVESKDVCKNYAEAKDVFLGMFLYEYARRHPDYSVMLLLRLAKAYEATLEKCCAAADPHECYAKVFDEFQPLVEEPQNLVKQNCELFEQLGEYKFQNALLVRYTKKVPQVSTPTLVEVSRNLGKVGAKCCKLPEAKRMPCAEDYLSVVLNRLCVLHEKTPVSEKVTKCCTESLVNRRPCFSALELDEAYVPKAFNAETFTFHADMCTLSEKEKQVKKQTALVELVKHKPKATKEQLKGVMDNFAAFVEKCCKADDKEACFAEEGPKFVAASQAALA

human serum albumin [1] = target: T3, human serum albumin (Homo sapiens, UniProt P02768); test: SPR pH 7.4
rabbit serum albumin = target: T4, rabbit serum albumin (Oryctolagus cuniculus, UniProt P49065); test: SPR pH 7.4
T4 chain: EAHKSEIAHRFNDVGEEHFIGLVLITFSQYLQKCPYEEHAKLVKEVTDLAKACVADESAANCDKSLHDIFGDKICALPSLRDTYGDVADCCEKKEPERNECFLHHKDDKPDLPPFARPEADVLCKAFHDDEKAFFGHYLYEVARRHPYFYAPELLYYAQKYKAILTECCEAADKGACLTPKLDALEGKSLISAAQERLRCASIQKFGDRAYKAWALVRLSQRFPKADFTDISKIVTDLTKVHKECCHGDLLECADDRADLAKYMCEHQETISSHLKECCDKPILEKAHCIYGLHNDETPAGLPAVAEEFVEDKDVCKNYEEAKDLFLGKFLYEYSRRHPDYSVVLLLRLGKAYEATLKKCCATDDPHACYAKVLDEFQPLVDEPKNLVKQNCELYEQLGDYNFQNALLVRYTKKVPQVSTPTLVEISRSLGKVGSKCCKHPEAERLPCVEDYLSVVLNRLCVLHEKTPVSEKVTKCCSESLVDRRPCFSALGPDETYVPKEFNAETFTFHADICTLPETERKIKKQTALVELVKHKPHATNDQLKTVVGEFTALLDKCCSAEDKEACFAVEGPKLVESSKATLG

human serum albumin [2] = target: T3, human serum albumin; test: SPR pH 5.0
human serum albumin [3] = target: T3, human serum albumin; test: SPR pH 7.4; remark: listed apart in the source
pig serum albumin = target: T5, pig serum albumin (Sus scrofa, UniProt P08835); test: SPR pH 7.4
T5 chain: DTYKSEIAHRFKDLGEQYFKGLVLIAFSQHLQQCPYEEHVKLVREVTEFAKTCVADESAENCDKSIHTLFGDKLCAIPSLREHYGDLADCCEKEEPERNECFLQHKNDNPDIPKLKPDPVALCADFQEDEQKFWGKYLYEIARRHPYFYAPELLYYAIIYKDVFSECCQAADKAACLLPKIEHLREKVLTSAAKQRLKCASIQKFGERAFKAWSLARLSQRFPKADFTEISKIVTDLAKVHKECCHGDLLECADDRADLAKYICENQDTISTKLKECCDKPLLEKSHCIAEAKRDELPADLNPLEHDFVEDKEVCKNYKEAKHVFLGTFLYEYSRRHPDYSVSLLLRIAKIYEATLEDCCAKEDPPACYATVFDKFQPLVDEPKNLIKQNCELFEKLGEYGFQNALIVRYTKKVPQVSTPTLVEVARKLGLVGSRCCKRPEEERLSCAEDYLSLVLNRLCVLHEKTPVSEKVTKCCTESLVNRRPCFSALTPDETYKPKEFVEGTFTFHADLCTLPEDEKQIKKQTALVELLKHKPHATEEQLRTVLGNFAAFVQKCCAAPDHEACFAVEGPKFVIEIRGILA

dog serum albumin = target: T6, dog serum albumin (Canis lupus familiaris, UniProt P49822); test: SPR pH 7.4
T6 chain: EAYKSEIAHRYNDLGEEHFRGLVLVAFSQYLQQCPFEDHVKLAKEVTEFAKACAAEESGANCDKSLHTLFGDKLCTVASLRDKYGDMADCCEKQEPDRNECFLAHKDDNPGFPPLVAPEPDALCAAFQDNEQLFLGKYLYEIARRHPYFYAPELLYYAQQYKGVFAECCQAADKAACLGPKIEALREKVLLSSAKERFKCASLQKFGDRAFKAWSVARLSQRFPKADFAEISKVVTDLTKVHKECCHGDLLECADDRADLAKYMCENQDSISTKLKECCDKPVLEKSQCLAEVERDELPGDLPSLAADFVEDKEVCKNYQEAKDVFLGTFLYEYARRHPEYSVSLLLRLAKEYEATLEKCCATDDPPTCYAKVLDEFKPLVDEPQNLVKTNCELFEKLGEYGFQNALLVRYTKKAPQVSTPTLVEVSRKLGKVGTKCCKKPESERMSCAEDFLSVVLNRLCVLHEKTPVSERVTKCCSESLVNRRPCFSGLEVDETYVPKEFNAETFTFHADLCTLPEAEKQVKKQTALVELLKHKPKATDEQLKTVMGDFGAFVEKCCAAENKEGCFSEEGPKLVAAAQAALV

sheep serum albumin = target: T7, sheep serum albumin (Ovis aries, UniProt P14639); test: SPR pH 7.4
T7 chain: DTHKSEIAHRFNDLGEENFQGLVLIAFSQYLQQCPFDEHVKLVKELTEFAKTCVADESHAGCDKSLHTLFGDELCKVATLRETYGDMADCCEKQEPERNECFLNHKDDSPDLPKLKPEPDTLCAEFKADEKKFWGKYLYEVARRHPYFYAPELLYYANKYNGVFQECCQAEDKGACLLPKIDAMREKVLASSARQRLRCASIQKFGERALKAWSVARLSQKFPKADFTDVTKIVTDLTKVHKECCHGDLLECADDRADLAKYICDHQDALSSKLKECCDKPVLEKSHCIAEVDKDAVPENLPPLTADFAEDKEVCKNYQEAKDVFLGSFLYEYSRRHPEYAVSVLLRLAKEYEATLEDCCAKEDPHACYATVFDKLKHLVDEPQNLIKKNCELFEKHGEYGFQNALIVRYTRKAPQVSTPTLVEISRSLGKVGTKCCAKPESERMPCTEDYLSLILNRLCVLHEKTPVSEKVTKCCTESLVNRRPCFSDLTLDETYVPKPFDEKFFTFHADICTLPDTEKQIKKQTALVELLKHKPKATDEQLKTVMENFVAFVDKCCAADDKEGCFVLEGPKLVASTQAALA

mouse serum albumin = mouse serum albumin (Mus musculus, UniProt P07724); test: SPR pH 7.4
human serum albumin [4] = target: T3, human serum albumin; test: SPR pH 6.0

B1: SEQ ID NO:19 serum albumin binder (T023500029) (antibody, V domains shown)
VH: EVQLVESGGGVVQPGDSLRLSCAASGGTFSTYVMGWFRQAPGKEREFVSAISQNSIHTYYANSVKGRFTISRDNSKNTVYLQLNSLRPEDTALYYCAASRFTSWYTADYEYDYWGQGTLVTVSS
binding result (bovine serum albumin): no binding | Kd (rat serum albumin): 0.067 nM | Kd (cynomolgus serum albumin): 0.45 nM | koff (human serum albumin [1]): 0.0002 s⁻¹ | binding result (rabbit serum albumin): no binding | koff (human serum albumin [2]): 0.00051 s⁻¹ | Kd (human serum albumin [3]): 0.44 nM | Kd (pig serum albumin): 45 nM | Kd (dog serum albumin): 1.2 nM | binding result (sheep serum albumin): no binding | Kd (mouse serum albumin): 0.27 nM | koff (human serum albumin [4]): 0.00032 s⁻¹
